# Assay results: patent USRE47150 (Bayer, dated 2018)
# Substitutions are numbered along the chain they refer to. Names may count otherwise.
# B1: 4B7 HC N32D+D62R+H107M+Y112D/LC D33R+N35I+D97T (Fab, V domains shown)
# VH: QVQLQQSGPGLVKPSQTLSLTCAISGDSVSSDSAAWSWIRQSPGRGLEWLGIIYKRSKWYNRYAVSVKSRITINPDTSKNQFSLQLNSVTPEDTAVYYCARWHSDKMWGFDDWGQGTLVTVSS
# VL: DIVMTQSPLSLPVTPGEPASISCRSSQSLVFSRGITYLNWYLQKPGQSPQLLIYKGSNRASGVPDRFSGSGSGTDFTLKISRVEAEDVGVYYCQQYTSYPLTFGQGTKVEIKR
# B2: 4B7 HC N32D+D62R+Y112D/LC S32R+D33F+N35I+D97T+S98H (Fab, V domains shown)
# VH: B1 VH with M107H
# VL: B1 VL with S32R, R33F, S98H
# B3: 4B7 HC N32D+D62R+H107M+Y112D/LC F31M+S32R+D33F+D97T (Fab, V domains shown)
# VH: B1 VH
# VL: B1 VL with F31M, S32R, R33F, I35N
# B4: 4B7 HC N32D+D62R+H107M+Y112D/LC S32R+N35T (Fab, V domains shown)
# VH: B1 VH
# VL: B1 VL with S32R, R33D, I35T, T97D
# B5: 4B7 HC N32D+D62R+H107M+Y112D/LC F31M+S32R+D33R+N35T (Fab, V domains shown)
# VH: B1 VH
# VL: B1 VL with F31M, S32R, I35T, T97D
# B6: 4B7 HC N32D+D62R+Y112D/LC D33F+N35I+D97T (Fab, V domains shown)
# VH: B1 VH with M107H
# VL: B1 VL with R33F
# B7: 4B7 HC N32D+D62R+H107M+Y112D/LC F31M+S32R+D33F+N35I (Fab, V domains shown)
# VH: B1 VH
# VL: B1 VL with F31M, S32R, R33F, T97D
# B8: 4B7 HC N32D+D62R+Y112D/LC M4L+S32R+D33F+N35I+D97T (Fab, V domains shown)
# VH: B1 VH with M107H
# VL: B1 VL with M4L, S32R, R33F
# B9: 4B7 HC N32D+D62R+H107M+Y112D/LC F31I+S32R+D33F+N35I+D97T (Fab, V domains shown)
# VH: B1 VH
# VL: B1 VL with F31I, S32R, R33F
# B10: 4B7 HC N32D+D62R+Y112D/LC F31I+D33F+N35I+D97T (Fab, V domains shown)
# VH: B1 VH with M107H
# VL: B1 VL with F31I, R33F
# B11: 4B7 HC N32D+D62R+Y112D/LC S32R+D33F+N35I+K55L+D97T (Fab, V domains shown)
# VH: B1 VH with M107H
# VL: B1 VL with S32R, R33F, K55L
# B12: 4B7 HC N32D+D62R+Y112D/LC S32R+D33F+N35I+L51R+D97T (Fab, V domains shown)
# VH: B1 VH with M107H
# VL: B1 VL with S32R, R33F, L51R
# B13: 4B7 HC N32D+D62R+Y112D/LC F31M+S32R+D33R+N35I (Fab, V domains shown)
# VH: B1 VH with M107H
# VL: B1 VL with F31M, S32R, T97D
# B14: 4B7 HC N32D+D62R+Y112D/LC F31H+S32R+D33F+N35I+D97T (Fab, V domains shown)
# VH: B1 VH with M107H
# VL: B1 VL with F31H, S32R, R33F
# B15: 4B7 HC N32D+D62R+Y112D/LC S32R+D33F+N35I+L42Q+D97T (Fab, V domains shown)
# VH: B1 VH with M107H
# VL: B1 VL with S32R, R33F, L42Q
# B16: 4B7 HC N32D+D62R+H107M+Y112D/LC D33R+N35T (Fab, V domains shown)
# VH: B1 VH
# VL: B1 VL with I35T, T97D
# B17: 4B7 HC N32D+D62R+Y112D/LC S32R+D33F+N35I+A60D+D97T (Fab, V domains shown)
# VH: B1 VH with M107H
# VL: B1 VL with S32R, R33F, A60D
# B18: 4B7 HC N32D+D62R+H107M+Y112D/LC F31I+D33R (Fab, V domains shown)
# VH: B1 VH
# VL: B1 VL with F31I, I35N, T97D
# B19: 4B7 HC N32D+D62R+Y112D/LC S32R+D33F+N35I+G56V+D97T (Fab, V domains shown)
# VH: B1 VH with M107H
# VL: B1 VL with S32R, R33F, G56V
# B20: 4B7 HC N32D+D62R+H107M+Y112D/LC F31I+S32R+N35I+D97T (Fab, V domains shown)
# VH: B1 VH
# VL: B1 VL with F31I, S32R, R33D
# B21: 4B7 HC N32D+D62R+H107M+Y112D/LC S32R+N35T+D97T (Fab, V domains shown)
# VH: B1 VH
# VL: B1 VL with S32R, R33D, I35T
# B22: 4B7 HC N32D+D62R+H107M+Y112D/LC F31M+D33R+N35I (Fab, V domains shown)
# VH: B1 VH
# VL: B1 VL with F31M, T97D
# B23: 4B7 HC N32D+D62R+H107M+Y112D/LC F31M+S32R+D33R+N35I+D97T (Fab, V domains shown)
# VH: B1 VH
# VL: B1 VL with F31M, S32R
# B24: 4B7 HC N32D+D62R+H107M+Y112D/LC F31I+N35I (Fab, V domains shown)
# VH: B1 VH
# VL: B1 VL with F31I, R33D, T97D
# B25: 4B7 HC N32D+D62R+H107M+Y112D/LC F31I+D33R+N35I (Fab, V domains shown)
# VH: B1 VH
# VL: B1 VL with F31I, T97D
# B26: 4B7 HC N32D+D62R+H107M+Y112D/LC F31M+S32L+D33R+N35I+D97T (Fab, V domains shown)
# VH: B1 VH
# VL: B1 VL with F31M, S32L
# B27: 4B7 HC N32D+D62R+H107M/LC S32R+D33R+N35I (Fab, V domains shown)
# VH: B1 VH with D112Y
# VL: B1 VL with S32R, T97D
# B28: 4B7 HC N32D+D62R+H107M+Y112D/LC F31I+S32R+D33F+N35T (Fab, V domains shown)
# VH: B1 VH
# VL: B1 VL with F31I, S32R, R33F, I35T, T97D
# B29: 4B7 HC N32D+D62R+Y112D/LC M4I+S32R+D33F+N35I+D97T (Fab, V domains shown)
# VH: B1 VH with M107H
# VL: B1 VL with M4I, S32R, R33F
# B30: 4B7 HC N32D+D62R+H107M+Y112D/LC F31M+S32R+D33R (Fab, V domains shown)
# VH: B1 VH
# VL: B1 VL with F31M, S32R, I35N, T97D
# B31: 4B7 HC N32D+D62R+Y112D/LC F31Y+S32R+D33F+N35I+D97T (Fab, V domains shown)
# VH: B1 VH with M107H
# VL: B1 VL with F31Y, S32R, R33F
# B32: 4B7 HC N32D+D62R+Y112D/LC D33R+N35I (Fab, V domains shown)
# VH: B1 VH with M107H
# VL: B1 VL with T97D
# B33: 4B7 HC N32D+D62R+H107M+Y112D/LC F31M+D33F+N35I (Fab, V domains shown)
# VH: B1 VH
# VL: B1 VL with F31M, R33F, T97D
# B34: 4B7 HC N32D+D62R+H107M+Y112D/LC F31M+D33F+N35T (Fab, V domains shown)
# VH: B1 VH
# VL: B1 VL with F31M, R33F, I35T, T97D
# B35: 4B7 HC N32D+D62R+H107M+Y112D/LC S32R+D33F+N35T (Fab, V domains shown)
# VH: B1 VH
# VL: B1 VL with S32R, R33F, I35T, T97D
# B36: 4B7 HC N32D+D62R+Y112D/LC S32R+D33F+N35I+K44R+D97T (Fab, V domains shown)
# VH: B1 VH with M107H
# VL: B1 VL with S32R, R33F, K44R
# B37: 4B7 HC N32D+D62R+H107M+Y112D/LC F31M+D33R (Fab, V domains shown)
# VH: B1 VH
# VL: B1 VL with F31M, I35N, T97D
# Molecular target: T1, mouse tissue factor pathway inhibitor (TFPI) (mouse, UniProt O54819 29-289, limits assumed)
# T1 construct: bought; also called mTFPI; murine TFPI
# T1 sequence (looked up): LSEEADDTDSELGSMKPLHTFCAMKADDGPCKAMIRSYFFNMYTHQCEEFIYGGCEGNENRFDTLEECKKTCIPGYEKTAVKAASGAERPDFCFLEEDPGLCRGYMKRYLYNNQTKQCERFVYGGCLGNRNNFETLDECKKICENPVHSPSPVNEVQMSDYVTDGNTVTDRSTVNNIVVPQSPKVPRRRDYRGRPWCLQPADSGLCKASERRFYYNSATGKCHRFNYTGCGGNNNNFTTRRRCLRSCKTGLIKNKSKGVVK
# Assay: competitive ELISA
Binder,variant/HC_D62R [ratio],binding result
B1,28.1,
B2,7.1,
B3,16.5,
B4,29.3,
B5,18.7,
B6,15.9,
B7,32.3,
B8,23.9,
B9,20.6,
B10,11.9,
B11,,no binding
B12,5.2,
B13,11.2,
B14,15.2,
B15,43,
B16,29.3,
B17,14.3,
B18,27.9,
B19,,no binding

Binder,variant/HC_D62R [ratio],binding result
B20,8.7,
B21,15.8,
B22,23,
B23,9.6,
B24,30,
B25,43,
B26,26.7,
B27,16.1,
B28,19.7,
B29,12,
B30,13.9,
B31,39.7,
B32,19.5,
B33,46.8,
B34,34.3,
B35,44.1,
B36,40.1,
B37,24.6,

# Molecular target: T2, human tissue factor pathway inhibitor (TFPI) (human, UniProt P10646 29-304, limits assumed)
# T2 construct: bought; also called hTFPI; human TFPI
# T2 sequence (looked up): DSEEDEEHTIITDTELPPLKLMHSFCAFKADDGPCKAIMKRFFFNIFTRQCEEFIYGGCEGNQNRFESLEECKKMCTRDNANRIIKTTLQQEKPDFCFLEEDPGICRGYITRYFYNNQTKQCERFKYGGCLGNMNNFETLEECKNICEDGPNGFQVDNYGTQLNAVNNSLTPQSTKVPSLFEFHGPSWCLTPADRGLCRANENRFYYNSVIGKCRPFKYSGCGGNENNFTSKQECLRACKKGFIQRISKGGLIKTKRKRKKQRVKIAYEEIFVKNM
# Assay: competitive ELISA
row,Binder,variant/HC_D62R [ratio]
1,B1,29.1
2,B2,17.9
3,B3,21.9
4,B4,25.3
5,B5,17
6,B6,25.5
7,B7,27
8,B8,21.3
9,B9,28.7
10,B10,23.3
11,B11,7.8
12,B12,11.2
13,B13,15.8
14,B14,22.1
15,B15,26.9
16,B16,28.2
17,B17,19.1
18,B18,30.1
19,B19,12.1

row,Binder,variant/HC_D62R [ratio]
1,B20,18.2
2,B21,27.7
3,B22,21.3
4,B23,16.9
5,B24,28.8
6,B25,29.8
7,B26,32.2
8,B27,12.9
9,B28,29.5
10,B29,19.3
11,B30,18.6
12,B31,27.9
13,B32,22.9
14,B33,28.4
15,B34,29.9
16,B35,29.2
17,B36,26
18,B37,26.9
